Test results as given in paper PMC9867676.

How the values were obtained:
[1] = tested on: T1, RinA (Staphylococcus aureus NCTC8325 (phage phi11)), ORF:ad3d0fcb; assay: EMSA; conditions: 50 mM Tris-HCl, 300 mM NaCl, pH 8.0 ([…], room temperature
T1 sequence: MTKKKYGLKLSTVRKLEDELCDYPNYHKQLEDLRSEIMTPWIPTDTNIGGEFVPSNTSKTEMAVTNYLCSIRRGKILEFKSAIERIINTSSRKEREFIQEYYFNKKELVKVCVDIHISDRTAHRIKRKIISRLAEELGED

[2] = tested on: T1, RinA (Staphylococcus aureus NCTC8325 (phage phi11)), ORF:ad3d0fcb; assay: competition; conditions: 50 mM Tris-HCl, 300 mM NaCl, pH 8.0 ([…], room temperature

Row | Sequence | binding [1] | binding [2]
1 | CTAAACCAAATGCTAACCCAGAAATACAATCACTGTGTCTAATGAATAATTTGTTTTATAAACACTTTTTTGTTTACTTCTCATTTTTAATTAGTTATAATTAACTAAATAATAGAGCATTAAATATATTTAATAAAACTTATTTAATGCAAAATTATGACTAACATATCTATAATAAATAAAGATTAGATATCAATATATTATCGGGCAAATGTATCGAGCAAGATGCATCAAATAGGGAGGTTTTAAACATGGC (double strand) [sarA promoter fragment (FAM)] | binds | 
2 | CTAAACCAAATGCTAACCCAGAAATACAATCACTGTGTCTAATGAATAATTTGTTTTATAAACACTTTTTTGTTTACTTCTCATTTTTAATTAGTTATAATTAACTAAATAATAGAGCATTAAATATATTTAATAAAACTTATTTAATGCAAAATTATGACTAACATATCTATAATAAATAAAGATTAGATATCAATATATTATCGGGCAAATGTATCGAGCAAGATGCATCAAATAGGGAGGTTTTAAACATGGC (double strand) [sarA promoter fragment (unlabeled)] |  | binds
